Data reported in US20140087995A1 (published 2014).
Numbered stars: 1 amine (or outer) side, 2 acyl side, 3 side chain; on linkers, the order of the positions; unused ones are H or OH. Bridge positions count the residues as written; N and C are the ends. Side chains are listed from the residue outwards. Ends that are not written are not given here. * marks the point of attachment. C20 diacid = O=C(O)CCCCCCCCCCCCCCCCCCC(=O)*; γGlu = O=C(O)[C@H](CCC(=O)[*:2])N[*:1]

T1: human calcitonin receptor (human, UniProt P30988 25-474)
T1 sequence (looked up): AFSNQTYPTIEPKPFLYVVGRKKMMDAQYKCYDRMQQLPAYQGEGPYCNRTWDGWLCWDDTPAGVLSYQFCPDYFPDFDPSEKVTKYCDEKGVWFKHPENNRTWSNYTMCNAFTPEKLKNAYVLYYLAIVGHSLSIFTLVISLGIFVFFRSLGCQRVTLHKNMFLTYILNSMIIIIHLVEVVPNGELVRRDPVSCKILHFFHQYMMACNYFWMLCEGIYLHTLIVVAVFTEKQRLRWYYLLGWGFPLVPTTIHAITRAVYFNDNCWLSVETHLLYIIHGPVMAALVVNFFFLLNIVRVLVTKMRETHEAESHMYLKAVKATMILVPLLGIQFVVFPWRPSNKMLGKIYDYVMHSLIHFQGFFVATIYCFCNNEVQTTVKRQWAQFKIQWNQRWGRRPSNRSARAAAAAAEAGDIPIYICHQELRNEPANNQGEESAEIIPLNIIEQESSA

B1: N^ε1-[(4S)-4-carboxy-4-(19-carboxynonadecanoylamino)butanoyl]-[His14,Arg17,Pro21,Pro27,His34]-h-amylin (peptide)
peptide: K([γGlu-C20 diacid])CNTATCATQRLAHFLRHSSPNFGAIPSSTNVGHNTY-NH2
modifications: disulfide 2-7; N-terminus assumed
SMILES: CC[C@H](C)[C@H](NC(=O)[C@H](C)NC(=O)CNC(=O)[C@H](Cc1ccccc1)NC(=O)[C@H](CC(N)=O)NC(=O)[C@@H]1CCCN1C(=O)[C@H](CO)NC(=O)[C@H](CO)NC(=O)[C@H](Cc1c[nH]cn1)NC(=O)[C@H](CCCNC(=N)N)NC(=O)[C@H](CC(C)C)NC(=O)[C@H](Cc1ccccc1)NC(=O)[C@H](Cc1c[nH]cn1)NC(=O)[C@H](C)NC(=O)[C@H](CC(C)C)NC(=O)[C@H](CCCNC(=N)N)NC(=O)[C@H](CCC(N)=O)NC(=O)[C@@H](NC(=O)[C@H](C)NC(=O)[C@@H]1CSSC[C@H](NC(=O)[C@@H](N)CCCCNC(=O)CC[C@H](NC(=O)CCCCCCCCCCCCCCCCCCC(=O)O)C(=O)O)C(=O)N[C@@H](CC(N)=O)C(=O)N[C@@H]([C@@H](C)O)C(=O)N[C@@H](C)C(=O)N[C@@H]([C@@H](C)O)C(=O)N1)[C@@H](C)O)C(=O)N1CCC[C@H]1C(=O)N[C@@H](CO)C(=O)N[C@@H](CO)C(=O)N[C@H](C(=O)N[C@@H](CC(N)=O)C(=O)N[C@H](C(=O)NCC(=O)N[C@@H](Cc1c[nH]cn1)C(=O)N[C@@H](CC(N)=O)C(=O)N[C@H](C(=O)N[C@@H](Cc1ccc(O)cc1)C(N)=O)[C@@H](C)O)C(C)C)[C@@H](C)O
notes: Synthetic acylated analogue of human amylin; also called compound 81
B2: N^ε1-[(4S)-4-carboxy-4-[[(4S)-4-carboxy-4-(19-carboxynonadecanoylamino)butanoyl]amino]butanoyl]-[Arg17,Pro21,Pro27,His34]-h-amylin (peptide)
peptide: K([γGlu-γGlu-C20 diacid])CNTATCATQRLANFLRHSSPNFGAIPSSTNVGHNTY-NH2
modifications: disulfide 2-7; N-terminus assumed
SMILES: CC[C@H](C)[C@H](NC(=O)[C@H](C)NC(=O)CNC(=O)[C@H](Cc1ccccc1)NC(=O)[C@H](CC(N)=O)NC(=O)[C@@H]1CCCN1C(=O)[C@H](CO)NC(=O)[C@H](CO)NC(=O)[C@H](Cc1c[nH]cn1)NC(=O)[C@H](CCCNC(=N)N)NC(=O)[C@H](CC(C)C)NC(=O)[C@H](Cc1ccccc1)NC(=O)[C@H](CC(N)=O)NC(=O)[C@H](C)NC(=O)[C@H](CC(C)C)NC(=O)[C@H](CCCNC(=N)N)NC(=O)[C@H](CCC(N)=O)NC(=O)[C@@H](NC(=O)[C@H](C)NC(=O)[C@@H]1CSSC[C@H](NC(=O)[C@@H](N)CCCCNC(=O)CC[C@H](NC(=O)CC[C@H](NC(=O)CCCCCCCCCCCCCCCCCCC(=O)O)C(=O)O)C(=O)O)C(=O)N[C@@H](CC(N)=O)C(=O)N[C@@H]([C@@H](C)O)C(=O)N[C@@H](C)C(=O)N[C@@H]([C@@H](C)O)C(=O)N1)[C@@H](C)O)C(=O)N1CCC[C@H]1C(=O)N[C@@H](CO)C(=O)N[C@@H](CO)C(=O)N[C@H](C(=O)N[C@@H](CC(N)=O)C(=O)N[C@H](C(=O)NCC(=O)N[C@@H](Cc1c[nH]cn1)C(=O)N[C@@H](CC(N)=O)C(=O)N[C@H](C(=O)N[C@@H](Cc1ccc(O)cc1)C(N)=O)[C@@H](C)O)C(C)C)[C@@H](C)O
notes: Synthetic acylated analogue of human amylin; also called compound 86
B3: N^ε1N^ε1-[(4S)-4-carboxy-4-(19-carboxynonadecanoylamino)butanoyl]-[His14,Arg17,Pro21,Pro27,Pro34]-h-amylin (peptide)
peptide: K([γGlu-C20 diacid])CNTATCATQRLAHFLRHSSPNFGAIPSSTNVGPNTY-NH2
modifications: disulfide 2-7; N-terminus assumed
SMILES: CC[C@H](C)[C@H](NC(=O)[C@H](C)NC(=O)CNC(=O)[C@H](Cc1ccccc1)NC(=O)[C@H](CC(N)=O)NC(=O)[C@@H]1CCCN1C(=O)[C@H](CO)NC(=O)[C@H](CO)NC(=O)[C@H](Cc1c[nH]cn1)NC(=O)[C@H](CCCNC(=N)N)NC(=O)[C@H](CC(C)C)NC(=O)[C@H](Cc1ccccc1)NC(=O)[C@H](Cc1c[nH]cn1)NC(=O)[C@H](C)NC(=O)[C@H](CC(C)C)NC(=O)[C@H](CCCNC(=N)N)NC(=O)[C@H](CCC(N)=O)NC(=O)[C@@H](NC(=O)[C@H](C)NC(=O)[C@@H]1CSSC[C@H](NC(=O)[C@@H](N)CCCCNC(=O)CC[C@H](NC(=O)CCCCCCCCCCCCCCCCCCC(=O)O)C(=O)O)C(=O)N[C@@H](CC(N)=O)C(=O)N[C@@H]([C@@H](C)O)C(=O)N[C@@H](C)C(=O)N[C@@H]([C@@H](C)O)C(=O)N1)[C@@H](C)O)C(=O)N1CCC[C@H]1C(=O)N[C@@H](CO)C(=O)N[C@@H](CO)C(=O)N[C@H](C(=O)N[C@@H](CC(N)=O)C(=O)N[C@H](C(=O)NCC(=O)N1CCC[C@H]1C(=O)N[C@@H](CC(N)=O)C(=O)N[C@H](C(=O)N[C@@H](Cc1ccc(O)cc1)C(N)=O)[C@@H](C)O)C(C)C)[C@@H](C)O
notes: Synthetic acylated analogue of human amylin; also called compound 67
B4: N^ε1-[(4S)-4-carboxy-4-[[(4S)-4-carboxy-4-(19-carboxynonadecanoylamino)butanoyl]amino]butanoyl]-[Glu14,Arg17,Pro21,Pro27,His34]-h-amylin (peptide)
peptide: K([γGlu-γGlu-C20 diacid])CNTATCATQRLAEFLRHSSPNFGAIPSSTNVGHNTY-NH2
modifications: disulfide 2-7; N-terminus assumed
SMILES: CC[C@H](C)[C@H](NC(=O)[C@H](C)NC(=O)CNC(=O)[C@H](Cc1ccccc1)NC(=O)[C@H](CC(N)=O)NC(=O)[C@@H]1CCCN1C(=O)[C@H](CO)NC(=O)[C@H](CO)NC(=O)[C@H](Cc1c[nH]cn1)NC(=O)[C@H](CCCNC(=N)N)NC(=O)[C@H](CC(C)C)NC(=O)[C@H](Cc1ccccc1)NC(=O)[C@H](CCC(=O)O)NC(=O)[C@H](C)NC(=O)[C@H](CC(C)C)NC(=O)[C@H](CCCNC(=N)N)NC(=O)[C@H](CCC(N)=O)NC(=O)[C@@H](NC(=O)[C@H](C)NC(=O)[C@@H]1CSSC[C@H](NC(=O)[C@@H](N)CCCCNC(=O)CC[C@H](NC(=O)CC[C@H](NC(=O)CCCCCCCCCCCCCCCCCCC(=O)O)C(=O)O)C(=O)O)C(=O)N[C@@H](CC(N)=O)C(=O)N[C@@H]([C@@H](C)O)C(=O)N[C@@H](C)C(=O)N[C@@H]([C@@H](C)O)C(=O)N1)[C@@H](C)O)C(=O)N1CCC[C@H]1C(=O)N[C@@H](CO)C(=O)N[C@@H](CO)C(=O)N[C@H](C(=O)N[C@@H](CC(N)=O)C(=O)N[C@H](C(=O)NCC(=O)N[C@@H](Cc1c[nH]cn1)C(=O)N[C@@H](CC(N)=O)C(=O)N[C@H](C(=O)N[C@@H](Cc1ccc(O)cc1)C(N)=O)[C@@H](C)O)C(C)C)[C@@H](C)O
notes: Synthetic acylated analogue of human amylin; also called compound 87

Molecular target: T1, human calcitonin receptor
Experiment: cell-based or functional assay

Ratio hCT/hAmylin funct. | hCTR funct. EC50 (pM) | Binder
13.3 |  | B1
 | 19200 | B2
5.2 | 354 | B3
3.8 | 1100 | B4
